# Measured values taken from the supplement of paper PMC9170038.
# System: MS2 coat protein
# Assay: apparent KD of MS2 coat protein; designed switch direction (-1 OFF switch, 1 ON switch): -1; higher = weaker reporter binding
# Outline: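 SNAP-549-labelled MS2 coat protein was titrated, doubling from 0.7 or 1.5 nM to 3 µM, over designed RNA switches transcribed on Illumina chips by stalled E. coli RNA polymerase. Runs were done without input, with 200 uM small-molecule ligand, or with an oligonucleotide input. Apparent KD is the per-design median over clusters of curve-fitted normalised fluorescence.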
# [1] = input ligand: microRNA oligo, concentration not stated
# [2] = Eterna round: R95, input ligand: microRNA oligo, concentration not stated
# [3] = Eterna round: R95, input ligand: FMN 200 uM
# [4] = Eterna round: R95, input ligand: none
Sequence,apparent KD of MS2 coat protein (input ligand: FMN 200 uM),apparent KD of MS2 coat protein (input ligand: none),apparent KD of MS2 coat protein [2],also measured
"GUACUGAAGCAUAGCUUUAGUCGUACAUGAGGAUCACCCAUGUAGGAUAUGGUAGGCUUUGCUUACUAGAAGGAUAGAGUGAUC [Mat - Exclusion NG 3 - Mod of JL - D71] (Eterna round: R96, puzzle: Exclusion NG 3)",157 nM,109 nM,,apparent KD of MS2 coat protein [1]: 86.8 nM
"GCGUAGUAUGUAGGAUAUCGGUCAGUUUCUGAUCGAGAAGGACAUGAGGAUCACCCAUGUAAAACGUCCGGUUUCUGGAUACGC [JL ENG1 3.57] (Eterna round: R96, puzzle: Exclusion NG 1)",27.5 nM,23 nM,,apparent KD of MS2 coat protein [1]: 16.3 nM
UCGCUGCGAGGAUAUACAUGAGGAUCACCCAUGUACGGGUCCGGGUCUUCGUCCAUUAGUAGAAGGCGCAGUGA [JL Laongeedie mod 2] (puzzle: Exclusion 3),,,47.7 nM,
AGCCUACAUGAGGAUCACCCAUGUCAGGAUAUCUCGCGACGUGUCGGGAACACGUUGCAGAGAAGGGACUCGGG [Labezadi] (puzzle: Exclusion 1),,,51.8 nM,
AACGACUGAGGAUAUACAUGAGGAUCACCCAUGUAUUGAAAUACGUGCUUGGUCAACUGUAGAAGGCAGAAUAA [Oresza] (puzzle: Exclusion 3),,,15.9 nM,
"GCCGAAAGUGUGAGGAUAUACCUAUGGAUACAUAGGUAGAAGGCACAUGAGGAUCACCCAUGUGGGAAAACGGC [Eli bmx4 4.30] (Eterna round: R97, puzzle: Brourd's mod of Exclusion 4)",1140 nM,190 nM,,
UGUUGUUGAUAGGAUAUACUUGUAGGAGUAGGAGUAGAAGGAUCUACAUGAGGAUCACCCAUGUAGGAGUGAGA [JR_E6_Sub003] (puzzle: Exclusion 6),,,16.6 nM,apparent KD of MS2 coat protein [3]: 18.2 nM; apparent KD of MS2 coat protein [4]: 15.7 nM
"AACUAUUUAGGAUAUCAGGCGAACCACAUGAGGAUCACCCAUGUGGCCCGUUGUGGUCCUUGAGAAGGAAAGAGUU [EX5 B.15] (Eterna round: R97, puzzle: Exclusion 5)",53.5 nM,22.7 nM,,
"GUCUCCAGAGGAUAUCUUUUACGCGACAUGAGGAUCACCCAUGUAGAGGAGAUUGUCAGGAGAGAAGGCUGGGACG [Eternabot (L1) Solution 56] (Eterna round: R97, puzzle: Exclusion 5)",55.1 nM,42.7 nM,,
"GGUUGGCGAGGAUAUACAUGAGGAUCACCCAUGUGGUCCUGUGGCUGGAAAAACCUUUGUAGAAGGCGCGGGUC [salish99_ex3_r4_028] (Eterna round: R97, puzzle: Exclusion 3)",258 nM,184 nM,,
"CGGUCGUCCUCAGGAUAUACAUGAGGAUCACCCAUGUUUCUAGGAUCGGUCGUCCGGUCGGUGGUGUAGAAGGGAGGGUGGCUG [random 2, A 18%] (Eterna round: R96, puzzle: Exclusion NG 2)",159 nM,43.6 nM,,apparent KD of MS2 coat protein [1]: 37.1 nM
"CAGUACUACAAGCUUGGGAACAUGAGGAUCACCCAUGUUCGUCUUAUUGAUCUAGGUACGCUGACGUACCUAGAUCU [JL-sv1-2.17 Brourd mod] (puzzle: Sensor v3, turn-off variant 1)",,,27.1 nM,apparent KD of MS2 coat protein [3]: 16.5 nM; apparent KD of MS2 coat protein [4]: 14.7 nM
AAUAACAGAGGAUAUACUAUUUUAUGUGUUUAUUGUUUUAAACAUGAGGAUCACCCAUGUAGAAGGCUGAGUAA [JMF 31] (puzzle: Exclusion 2),,,37.4 nM,
"ACAAGCUUUUUGCUCGGGUACAUGAGGAUCACCCAUGUUGUGUUUUAUUGUUUUUGAUUGUUCGUGCGCUGCAGGUU [JR_SV3TOV1_Sub074] (puzzle: Sensor v3, turn-off variant 1)",,,38.5 nM,apparent KD of MS2 coat protein [3]: 42.7 nM; apparent KD of MS2 coat protein [4]: 58.3 nM
AUACAACAUGAGGAUCACCCAUGUGAGGAUAUGCGAUACAUCAUCAUCAUCAUCAAUCGCAGAAGGCACAACAU [Different] (puzzle: Exclusion 1),,,52.3 nM,
"ACAUGAGGAUCACCCAUGUCCGGCUGGUCCGUCUCGGCUGUCGAGGAUAUAGCUUGGUGUCCGCGCUAGAAGGUGGGAGCCGGC [Aenatbe mod 71] (Eterna round: R96, puzzle: Exclusion NG 3)",166 nM,154 nM,,apparent KD of MS2 coat protein [1]: 105 nM
"AAACGCAGAGGAUAUACAUAUUUUCCUCAUGUGCAGCUUACACAUGAGGAUCACCCAUGUAGAAGGCUGGAAAA [EX2 A.29] (Eterna round: R97, puzzle: Exclusion 2)",300 nM,48.6 nM,,
"GCCAGCGUAUAGGAUAUGGCCGGCUUUUGAGUACCAGAAGGAUACACAUGAGGAUCACCCAUGUGGCAUUCGUC [Eternabot (L2) Solution 71] (Eterna round: R97, puzzle: Exclusion 6)",20.5 nM,14.7 nM,,

Sequence,apparent KD of MS2 coat protein (input ligand: FMN 200 uM),apparent KD of MS2 coat protein (input ligand: none),apparent KD of MS2 coat protein [2],also measured
"AGUAACUAUCACGAAAGUGAUAGUUACAAAAGCAGUGAAACAUGAGGAUCACCCAUGUCCUCAUUUGCUCGUCUUAU [Sensor 3 - 24] (puzzle: Sensor v3, turn-off variant 2)",,,576 nM,apparent KD of MS2 coat protein [3]: 53.4 nM; apparent KD of MS2 coat protein [4]: 66.5 nM
"AGUACUAACACGAAAGUGUUAGUACAAUAAGCUUGUGAAACAUGAGGAUCACCCAUGUCCUCAUAUGCUCGUCUUAU [salish99_TOv2_r3_053] (puzzle: Sensor v3, turn-off variant 2)",,,822 nM,apparent KD of MS2 coat protein [3]: 471 nM; apparent KD of MS2 coat protein [4]: 641 nM
"CGUGCGUAUGUGAGGAUAUGCUGGUCCUUGGAUCGGCAGAAGGCACAUGAGGAUCACCCAUGUGGUGUCGUUCC [salish99_Bmod_ex4_094] (Eterna round: R96, puzzle: Brourd's mod of Exclusion 4)",328 nM,39.1 nM,,apparent KD of MS2 coat protein [1]: 30.8 nM
UGUGCGUAUGUGAGGAUAUGCUGGUCCUUGGAUCAGCAGAAGGCACAUGAGGAUCACCCAUGUGGUGUCGUACG [salish99_Bmod_Ex4_008] (puzzle: Brourd's mod of Exclusion 4),,,96.9 nM,
GCCGCUGUAGGAUAUGCCAGGGUGGCAGCUUGAUGUGUGGCACAUGAGGAUCACCCAUGUAGAAGGACAGAAAG [Isvelera] (puzzle: Exclusion 2),,,17.1 nM,
"GAAAACGCAGAGGAUAUUUCAGAUCAAAGCUGCAAAGAAGGCUGCACAUGAGGAUCACCCAUGUGGUCUUUAAA [Quesina] (Eterna round: R96, puzzle: Exclusion 6)",,,,apparent KD of MS2 coat protein [1]: 16 nM
"ACAAGCUUGUAAUGAUUUAACAUGAGGAUCACCCAUGUAAAUGGAAGAACCAAUUUGAUAUGAUUUACUCGUCUUAU [JR_STOV1_Sub008] (Eterna round: R97, puzzle: Sensor, turn-off variant 1)",495 nM,589 nM,,
"CCGCUCCGUGUAGGAUAUUGGCCUGCUCUGGGCCGAGAAGGACAUGAGGAUCACCCAUGUAUGUUAUUAUCACGCGUGGCGCAU [Design 79] (Eterna round: R96, puzzle: Exclusion NG 1)",31.6 nM,21.6 nM,,apparent KD of MS2 coat protein [1]: 14.5 nM
"CCCUCACAUGAGGAUCACCCAUGUCAGGAUAUCCAAGGCGAUCACCAAAAUAAAGCAAGGAGAAGGGACUUGGC [Enona] (Eterna round: R97, puzzle: Exclusion 1)",71.5 nM,41.4 nM,,
"ACUCAACAUGAGGAUCACCCAUGUCAGGAUAUCUCUAUUUUGCGCGGGAGCAGAAUAGAGAGAAGGGACAACCU [Eternabot (Original) Solution 3] (Eterna round: R97, puzzle: Exclusion 1)",91.2 nM,42.8 nM,,
GCUGCGCGAGGAUAUGCGGUUUGUGCUGUGGCCCGUGGCGUACAUGAGGAUCACCCAUGUAGAAGGCGUGUGGG [Apr-15 SS2-54] (puzzle: Exclusion 2),,,22.5 nM,
"AAACCUGGAGUUAGGAUAUGAAGUAUCACUGCGCUUCAGAAGGGACUUGAGGAUCACCCAAGUAAAAGUUAAAA [Teredi] (Eterna round: R97, puzzle: Brourd's mod of Exclusion 4)",20.8 nM,18.5 nM,,
AGUAACAGAGGAUAUACUGUUUUAUGUGUUUAUUAUUUUGAACAUGAGGAUCACCCAUGUAGAAGGCUGAAUAA [JMF 90] (puzzle: Exclusion 2),,,21.8 nM,
"GUUCGACAUGAGGAUCACCCAUGUGAGGAUAUACGAUUAGCUGCUAGGUAGUUAGUAUGUAGAAGGUGCGUGUU [EX1 #70] (Eterna round: R97, puzzle: Exclusion 1)",53.3 nM,54.2 nM,,
"CUAGCGUAUGUAGGAUAUCGGACUGUUUCAGUCUGAGAAGGACAUGAGGAUCACCCAUGUAUAGCUACGUGAGUAGCUCGCUAG [JL ENG1 3.94] (Eterna round: R96, puzzle: Exclusion NG 1)",,,,apparent KD of MS2 coat protein [1]: 17.2 nM
"AACCAGCGAGGAUAUGCUUGAGCUUGUUCUGGUCAGAAUCGACUUGAGGAUCACCCAAGUAGAAGGUGCUGACG [EX2 #60] (Eterna round: R97, puzzle: Exclusion 2)",18.7 nM,16.9 nM,,
AAAGAACAUGAGGAUCACCCAUGUGAGGAUAUGUGAGAAUUGUGGAGAAGAAGAGAGAACAGAAGGCACUGAGG [JR_Exclu1_Sub067] (puzzle: Exclusion 1),,,51.3 nM,apparent KD of MS2 coat protein [3]: 77 nM; apparent KD of MS2 coat protein [4]: 64.5 nM
"CCACUGUCAGGAUAUCGUGCAUAACGUUAACAAUUUAUGUGCGAGAAGGGACAUGAGGAUCACCCAUGUAAACG [Omei Ex4 A28PK4] (Eterna round: R97, puzzle: Exclusion 4)",233 nM,166 nM,,
